The source of these data is patent US20250136683A1 (SINOMAB BIOSCIENCE, published 2025).

For assay [1], the target named is T1, LRID (murine IgG anti-idiotype antibody against the antigen binding site of SM03 and SM06).
T1 construct: An scFv from a phage library, re-engineered as a murine IgG; also called anti-idiotype antibody for SM03; surrogate antigen for CD22
In words: direct ELISA, plate coated with LRID. For orientation: In an ELISA, binding on a coated surface is turned into a signal by an enzyme label.

The target of assay [2] is T2, recombinant human CD22 encompassing domains 2-4 (CD22d2-4) (human, UniProt P20273 139-417).
T2 construct: also called domain 2-4 of recombinant human CD22 antigen
In words: direct ELISA, plate coated with CD22d2-4.

Assay [3] concerns the target LRID Fab fused to the transmembrane portion of glycophorin A, on SP2/0 cells (Fab-GlycoA). In words: cell-based or functional assay.
In assay [4] the target is LRID Fab fused to the GPI signal sequence from decay accelerating factor (DAF), on SP2/0 cells (Fab-GPI). In words: cell-based or functional assay.
Chain of LRID Fab fused to the GPI signal sequence from decay accelerating factor (DAF), on SP2/0 cells (Fab-GPI) (VH, as listed by the source, chain 1 of 2): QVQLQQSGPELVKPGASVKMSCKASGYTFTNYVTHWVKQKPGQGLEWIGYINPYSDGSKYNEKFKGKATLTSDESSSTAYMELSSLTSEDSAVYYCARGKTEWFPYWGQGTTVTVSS
Chain of LRID Fab fused to the GPI signal sequence from decay accelerating factor (DAF), on SP2/0 cells (Fab-GPI) (VL, as listed by the source, chain 2 of 2): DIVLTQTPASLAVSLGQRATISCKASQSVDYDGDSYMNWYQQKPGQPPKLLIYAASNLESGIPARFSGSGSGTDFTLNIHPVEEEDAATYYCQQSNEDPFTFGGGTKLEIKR
Assay [5] concerns the target T3, human recombinant CD22 (PeproTech) (human, UniProt P20273 20-687, limits assumed).
T3 construct: Bought protein immobilized on a CM5 chip; also called recombinant human CD22 antigen; human CD22 antigen
In words: SPR (BIAcore), CD22 immobilized on CM5 chip, SM03 injected. As for the experimental part: Affinity of anti-CD22 antibodies against human CD22 was performed using BIAcore (GE Healthcare Life Sciences, Piscataway, NJ) according to standard procedures. Briefly, human recombinant CD22 (20 μg/ml, PeproTech, Rocky Hill, NJ) was immobilized on carboxymethylated dextran-coated CM5 sensor chip. The chip surface was firstly activated with N-ethyl-N′-(3-[…]) carbodiimide hydrochloride (EDC) and N-hydroxysuccinimide (NHS). […] The dissociation was studied by washing with running buffer for 3 min. The chip surface was then regenerated by injection with 50 mM glycine-Cl for 60 s. Kinetic parameters including ka (association rate constant) and kd (dissociation rate constant) were estimated using the BIA evaluation software. The specific binding curves were normalized by subtracting the control curve.
(In SPR one partner is held on a chip, and binding of the other changes the refractive index at the surface.)

The target of assay [6] is T2, recombinant human CD22 encompassing …. In words: ELISA, plate coated with refolded CD22d2-4, % Binding. As for the experimental part: Preliminary epitope mapping was done by expressing different combinations of extracellular domains encompassing the human CD22 sequence in bacteria and the refolded recombinant proteins were tested for binding to SM03 in an ELISA assay. […] There are 6 extracellular domains for human CD22 antigen that are expressed on the surface of matured B cells. […] Briefly, the DNA sequence encoding different domain regions of human CD22 were cloned into a pET bacterial expression vector preceded with a pelB sequence (as described in Ward et al. (1989) Nature 341:544-546). The expression vectors were used to transform bacterial host cell BL21 (DE3) pLysS (Promega, Madison, WI) using standard techniques in molecular biology: expression of the transfected genes were induced by the addition of 1 mM of isopropyle β-D-thiogalactoside (IPTG). After incubating at 37° C. for 4 hours with orbital shaking at 250 rpm, the bacteria were pelleted by centrifugation at 6,000 rpm for 15 minutes. Cells were lysed in lysis buffer (50 mM Tris-HCl, pH 8 containing 0.1 M NaCl, 5 mM EDTA, 0.1% NaN₃, 0.5% TritonX-100, 100 μM PMSF and 1 mM DTT) with the aid of a glass homogenizer. After French press treatment, 2.5 mM MgCl₂ was added to chelate the EDTA, and 0.1 mg/ml Lysozyme and 0.01 mg/ml DNase were added and the mixture was incubated at room temperature for 20 minutes. […]

T1 sequence (VH, as listed by the source, chain 1 of 2): as the sequence (VH, as listed by the source, chain 1 of 2) above
T1 sequence (VL, as listed by the source, chain 2 of 2): as the sequence (VL, as listed by the source, chain 2 of 2) above
Chain of LRID Fab fused to the transmembrane portion of glycophorin A, on SP2/0 cells (Fab-GlycoA) (VH, as listed by the source, chain 1 of 2): as the sequence (VH, as listed by the source, chain 1 of 2) above
Chain of LRID Fab fused to the transmembrane portion of glycophorin A, on SP2/0 cells (Fab-GlycoA) (VL, as listed by the source, chain 2 of 2): as the sequence (VL, as listed by the source, chain 2 of 2) above

B1: SM06 (antibody, V domains shown)
VH: EVQLVESGGGLVQPGGSLRLSCAASGFSFSIYDMSWVRQAPGKGLEWVAYISSGGGTTYYPDTVKGRFTISRDNAKNSLYLQMNSLRVEDTALYYCARHSGYGSSYGVLFAYWGQGTLVTVSS
VL: DIQLTQSPSSLSASVGDRVTISCRASQDISNYLNWYQQKPGKAPKLLIYYTSILHSGVPSRFSGSGSGTEFTLTISSLQPEDFATYFCQQGNTLPWTFGGGTKVEIKR
notes: Framework-patched (humanized) anti-CD22 antibody with human constant regions; also called framework-patched (humanized) version of SM03
Consider B1, for which the EC50 in assay [1] came out at 0.065 µg/mL; in assay [2] it was 0.14 µg/mL.

B2: SM03 (antibody, V domains shown)
VH: QVQLQESGGGLVKPGGSLKLSCAASGFAFSIYDMSWVRQTPEKRLEWVAYISSGGGTTYYPDTVKGRFTISRDNAKNTLYLQMSSLKSEDTAMYYCARHSGYGSSYGVLFAYWGQGTLVTVSS
VL: DIQLTQTTSSLSASLGDRVTISCRASQDISNYLNWYQQKPDGTVKLLIYYTSILHSGVPSRFSGSGSGTDYSLTISNLEQEDFATYFCQQGNTLPWTFGGGTKLEIKR
notes: Chimeric antibody against human CD22: murine variable regions with human constant regions; The embodiments speak of an IgG1 heavy chain and kappa light chain constant region; also called anti-CD22 antibody SM03; chimeric anti-CD22 antibody
In the case of B2, the “CMC killing of surrogate target cells, EC50” value in assay [3] was found to be 130 µg/mL. Further, the “CMC killing of surrogate target cells, EC50” value in assay [4] was 220 µg/mL. Also, in assay [1], the EC50 came out at 0.08 µg/mL. In addition, the EC50 in assay [2] came out at 0.1 µg/mL. For the same molecule, in assay [5], the Ka was found to be 8.2e+08 M⁻¹, the Kd was determined as 1.22 nM, the koff was found to be 0.0137 s⁻¹ and the kon turned out to be 1.13e+07 M⁻¹ s⁻¹. Besides, the “EC50 (read off the curve)” value in assay [6] was roughly 0.02 µg/mL.

As usually defined, the EC50 is the concentration giving half of the maximal effect. By Kd is commonly meant a measure of binding affinity in units of concentration. For orientation: koff means the rate constant with which the complex falls apart. One may read the kon as the rate constant with which the complex forms. A word on the EC50 (read off the curve): it is the midpoint of the concentration-response curve.
